Measurements as given in patent US8703460B2, “Method for the production of an additive for the enzymatic decomposition of mycotoxins, additive, and use thereof” (Erber Aktiengesellschaft, priority 2008, dated 2014).

B1: aminotransferase ID No. 25: HFB1 aminotransferase encoded by sequence ID No. 24 (protein, listed as Caulobacter sp.)
chain: MELSRQRDQALRERAQAVIPGGMYGHESTYLMPEGTPQFFSRGKGARLWDADGNEYVDYMCAYGPNLLGYGFEPVEAAAAAQQARGDTLTGPSEVMVQLAEDFVAQISHADWAMFCKNGTDATSMAMVIARAHTGRKTILCAKGAYHGAAPWCTPILAGTLPEDRAFVVYYDYNDAQSLVDAFEAHQDDVAAIFATPHRHEVFSDQIDPDPEYAASVRALCDKSGALLVVDEVRAGFRIARDCSWAKIGVAPDLSTWGKCFANGYPISAVLGGEKVRSAAKAVYVTGSFWFSATPMAAAVETLKQIRETDYLERINAAGTRLREGLQQQAAHNGFTLRQTGPVSMPQVLFEEDPDFRVGYGWVRECLKRGVYFSPYHNMFLSAAHSEADLAKTLAATGDAFVELRAKLPSLEIHQPLLALRAA
modifications: Seq ID 25
B2: aminotransferase ID No. 19: HFB1 aminotransferase encoded by fumI (sequence ID No. 18) (protein, listed as Sphingopyxis sp.)
chain: MANGTRQKDLRERAERVIPGGMYGHESTRLLPPEFPQFFRRALGARIWDADEQPYIDYMCAYGPNLLGYRQSEIEAAADAQRLLGDTMTGPSEIMVNLAEAFVGMVRHADWAMFCKNGSDATSTAMVLARAHTGRKTILCAKGAYHGASPWNTPHTAGILASDRVHVAYYTYNDAQSLSDAFKAHDGDIAAVFATPFRHEVFEDQALAQLEFARTARKCCDETGALLVVDDVRAGFRVARDCSWTHLGIEPDLSCWGKCFANGYPISALLGSNKARDAARDIFVTGSFWFSAVPMAAAIETLRIIRETPYLETLIASGAALRAGLEAQSQRHGLELKQTGPAQMPQIFFADDPDFRIGYAWAAACLKGGVYVHPYHNMFLSAAHTVDDVTETLEATDRAFSAVLRDFASLQPHPILMQLAGA
modifications: Seq ID 19 (FumI)

Columns and labels:
[1] = tested on: piglets; assay: Feeding test with piglets; type: in vivo, pigs; settings: Positive control: 4-5.5 ppm fumonisin B1 in feed, no enzyme
Experimental: The test was performed in a test stable with 12 stalls for 10 animals each. The stable was equipped with a slatted floor, pan troughs and a computer-controlled feeding system. The automats were arranged along the stall walls. Every day, the stable climate was automatically recorded, and the temperature was set according to the standard recommendations for piglet breeding.
For this test, 120 mixed-sex weaned pigs (age: about 4 weeks, average setting weight: 8.21 kg) were used. Each piglet was earmarked and individually weighed. The 120 piglets were randomly distributed among 12 stalls. All piglets came from the Austrian Breeding Program ÖHYB (=(large white×landrace)×Pietrain).
Immediately upon weaning, the piglets were fed with a starter feed for two days, after this settling-in period the changeover to the test feed took place. Feeding was effected in two phases: Weaning phase days 1-14, breeding phase days 15-42. The test feed was mixed individually per stall via the spotmix feeding installation and allotted in dry form twice a day as a function of the number of piglets, weight development and feed consumption. Water was available ad libitum. The 12 stalls were divided into four different application groups at three repetitions each and received the following admixtures in the above-described feed: […]

[2] = Catalytic activity of HFB1 aminotransferase in E. coli lysate; type: biochemical; settings: 25° C.; for degradation of the hydrolyzed fumonisin to 2-keto-HFB1: cosubstrate added (α-keto acid e.g. pyruvic acid, or oxalacetate); for reduction of the hydrolyzed FB1 concentration: no cosubstrate, 50 mM sodium phosphate buffer
Experimental: Sequences ID Nos. 18 and 24 were cloned using standard procedures and expressed in E. coli under the control of a bacteriophage T7 promoter. The bacterial cells were collected, resuspended in 50 mM sodium phosphate buffer and lyzed under ultrasonic action. Hydrolyzed fumonisin was added, and the samples were incubated at 25° C. Samples were taken at time intervals and analyzed by HPLC-MS/MS. No reduction of the hydrolyzed FB1 concentration was observed. […] This substance is totally harmless for mammals.

[3] = type: biochemical; settings: corn mash after carboxylesterase treatment; FIG. 5
Experimental: Samples of corn mash for the production of bioethanol were taken and incubated at 30 to 65° C. under stirring, the degradation of fumonisin B1 having been investigated after the addition of 770 units of carboxylesterase ID No. 9 per cubic meter of mash under stirring (stirring time in minutes). Samples were inactivated by boiling-up after having been taken and subsequently centrifuged for analysis, and an aliquot of the supernatant was evaporated. The residue was taken up in 200 μl sample buffer containing C^13-labelled internal fumonisin standard, shaken for 1.5 min, centrifuged off, and then subjected to LC-MS-analysis.

Molecule	respiratory problems observed [1]	Final weight (average, kg) ([1]; 42 days) [kg]	degradation of the hydrolyzed fumonisin to 2-keto-HFB1 [2]	reduction of the hydrolyzed FB1 concentration [2]	degradation of hydrolyzed fumonisin HFB1 [3]
CCCC[C@@H](C)[C@@H](OC(=O)C[C@@H](CC(=O)O)C(=O)O)[C@H](C[C@@H](C)C[C@H](O)CCCC[C@@H](O)C[C@H](O)[C@H](C)N)OC(=O)C[C@@H](CC(=O)O)C(=O)O [fumonisin B1]	almost half of the animals	24.77			
B1			complete degradation	No reduction	
B2			complete degradation	No reduction	completely degraded
